Measured values reported in the DeepSol protein solubility set.

Assay: soluble on expression in E. coli; label from the status in PepcDB or PDB records

Sequence	soluble on expression in E. coli
MAHHHHHHMQSALRSFSEAAVGLGTSQEKLAAFIAFTNQEKLRVPQLALLRELRRQLVAEEAIAERGRHHQQPDYGVSKRSSNASAAYQDSGDQNAHLSDLRKVNVLCSSKTEKSLQCSKTLSLNHQRGDSTTGAHKTRFQSPRFSSLKSVPFAQAGAANDEYDEDIRGFGARDFAPTPTPSGKLPYKPRDVCLLNSSYFANRSIRSDGSNPCGAPLPTSSPGTPSPSWRGAMTATAFAKLPAPSQQPLLAVDSSLGTVIDVDSEFSLVREAEDTAESRFAPKQDLSIVSMNSSQLELLNIAELAASSSEAALAQPPAAAVLTGIREKVADGSLSKHTVTLFHESNEKRSRGVAASTAAEVAVASVTASIAERKPAPSSQPSTQRGLCGYTNPGNFASLLVPNVLARPVSPPAERTVAPFSLRVAPASTSPSDKEKAVTLEQQEGMASTTAVTIGSTDSAGPAAASVASRLPSPPLITQAEENDGFVYYCANPSHSVIDSYAGRRKLLAVTVKL	not soluble
MCLIVFAWRPGHALPLIVAANRDEFYARPTQPLAAWEDAPGVHAGRDLEAGGTWLGVGPQGRFAALTNIRDPGQAQGPRSRGELVAAFLQGELGVGAYLDQVASRSGQYSGFNLLVGDGQRLGYLHAREATPRLLKAGVYGLSNAGLDTPWPKLVKARDGLENLLDTPEPHRLLALLADNEPAADGDLPETGVGLATEKLLSSVFIASQNYGTRASTVLIVDDQGQRRLVERSFGPFGGHLGEIELLVLEHHHHHH	soluble
MSLRGGEDSPVDGARQAAANVFGPIENGVSSAVDPVGNAVSAVRDSGDRHDRLARLETENAALKAKSGSDERGRSRLKQFDKMLGLAGAGQYGIKGAQVIAIGAAQGFSWTITIDAGANDGVKRDMTVLNGDGLVGRVTTVGPNTATVLLANDPDFTVGTRMESGDELGFASGQGSRPLRVELLNGKADVKKGDRLVTFGSQADKPFVPGVPVGTITRVDPNGGDLTRILDVTPFVSFTKLDIVGVVVQAPSKDPRDTVLPEKKQPKPTPTVTVTVTPGADPEGQTRNDEAGQDEAAGQNDATGQNDQTEQQNEQPEPEGHHHHHH	soluble
SLSGRIVYNFNPGWRFHRGDIKGAEAVRFDDTSWQVVSVPHTVELMPAEASGCRNYQGVAWYRKHFVIPQDMKGKEVSLHFEGAMGKQVIYLNGKRVQEHLGGYLPFTVQLTEQGVQPGDSCLLAVMTDNSDDKNFPPGKRQYTLDFAYHGGIYRDVWMIGKSSVAITDALEADKVAGGGVFVHFDNISGKKAEVYVDTEVHNSGKQTRTVAVETVLADAGDVPVKRVSQQVKLQAGESKTVRQRFAVRNPKLWSPDSPYLYRIQSRVKAGHEVLDGGVTRVGIRKAEFKGKDGFWLNGKPFGQLVGANRHQDFAYVGNALPNSQQWRDAKRLRDAGCTIIRVAHYPQDPAFMDACDEMGLFVIVATPGWQYWNKNPEFAKLVHRNTREMIRRDRNHPSVLMWEPILNETPYPRDFALEALRITREEFPYPGRPVAAADVHSKGVAENYDVVYGWPGDDEKADRPEQCIFTREFGENVDDWYAHNNNNRASRSWGERPLLVQALSLSKSYDEMYRTTGQFVGGAQWHPFDHQRGYHPDPYFGGIYDAFRQPKYAYYAFRSQSAATLKHPVAECGPMVFIAHEMSPFSDADVVVFSNCDSVRLSVYDGTESRTLPVVHAQGHMPNAPVIFKDVWDFWEAREYSYKQKNWQKVNMVAEGIIDGKVVCTYKRMPSRRSTKLRMYVDTEGKQLVADGSDFIVVVAEVTDDSGNVRRLAKENIVFTVEGEGRIIGDASINANPRTVEFGSAPVLIRSTRKPGKIKVKAHVQFEGTNAPVATEIELESIPSELPFCYTEEG	not soluble
QMQMGLSSFDRVMDVVDMTAEHPDPEHPLDLPAGPLSLELENVHFDGILNGTTLTVPAGDTVAIVGPPGSGKTMAVQLLCGFYRPESGQIRLGGVDTTQLRRHDLRNAVSCVFDDPFLYSASIRDNIAMGRNVTDVEIERAARIAQAHDFITALPHGYDEIVGERGLTLSGGQRQRIAIARAVLERPRVLILDDATSAIDVTTEHAIYEQLSTELSDVTILAVAHRNSTLSLADSVALIDNGRIVDHGSLSYMRANPQFVYLMDVQEHLRKRNSHEPFVPFDDGTEPEWTQLWPEIASSQHDSRLTINSSAMKAAASVAGANPAAGGRGRGRGGMAASIPATPELLARVDALPPTRDTPGPRPLLDHDHGKVTAHQLFASVR	not soluble
SMSDESVYKVLLLGAPGVGKSALARIFGGVEDGPEAEAAGHTYDRSIVVDGEEASLMVYDIWEQDGGRWLPGHCMAMGDAYVIVYSVTDKGSFEKASELRVQLRRARQTDDVPIILVGNKSDLVRSREVSVDEGRACAVVFDCKFIETSAALHHNVQALFEGVVRQIRLRRDSKEA	soluble
MGSDKIHHHHHHMSDAKLQSVLSSLSQVARQLDALPSDTPAPDSSWVKLNTNENPFPLPEIIMQSAIAALERQYLYPEDDNISLREAAANAYSVSMDQVIAGNGSSELLGLVYRAFLTPGDSVAMMSPGFSFNRKLATLQGAQFVEIEFSKDHSLPMEQLLFGPAKDAKFILLANPNNPTGTFVPVADIERLVAKSDRLIVLDEAYVDFAPENGLRLINRYSNLLVLRTFSKSYAAAGVRVGFGFGHPEIIGRLRNIQNVFNMNVIGQAVGISVLAHRAAYADNHRHIRHERRRVTLALSQLGFSVIPSHANFLLARVPTAQDGSWWQSAFARQKILVAVFPDKGLENYIRVSIGTKEQMDAFLRAASRISRILNMSTPPR	not soluble
MGSDKIHHHHHHMIYIGLPQWSHPKWARLGITSLEEYARHFNCVEGNTTLYALPKAEIVDRWYAQTTDDFRFCFKFPATISHQAALRHCDDLVQAFFTRLAPLETRIGQYWLQLPAAFGPRDLPALWQFLDALPATFTYGVEVRHPCFFDKGEDEQRLNRGLHARGVNRVILDSRPVHAAHPHSEAVRDAQRKKPKVPVHAVVTASHPMVRFIGSDNMAQNREFFAAWLQKLPQWRQTTTPFLFLHTPDIAQAPELVNTLWHDLRSVLPEIGTAPSIPQQSSLF	not soluble
MAHHHHHHMKDVDTARVLSELVNALQRVTAQPAWNTVQEPKAITFRLEDLFSTPNSVLASAATEGDSPEHGGNASEMNSPDMAAASFVNSGVGDGLGETATPLAPLREMSDHFSSNKKYAEEGLQDVFTMLQRLIDGTYSTAGCAALACMGQEIDKMITLMRPVALIDMRAAVYMNSLCSNIAAAKESRMQLNAPLVWDFVTNTVQTYITDHPVLYTALVAISNLSYLKDLKLTREDCGVLSRLIYPVYTEVHIVEVWAAMICNLTAHHPETVQVFLELGVVEVLERLVLYFGEEGRTVIRCLQCLSNLSMGFITGHSPALAE	not soluble
EDFVVSGALNLSLIRERTGFQAKATEDYQTLAGLVMSLLDRLPSTGDSLSWQGWNLQVVGVEERRVTRVLLQKQP	not soluble
MARLCTHTESGHYLMALDAGTGSVRAVIFDLQGKQIAVGQAEWQHLAVPDVPGSMEFDLAKNWQLACQCIRQALQKAAIPATAIAAVSACSMREGIVIYDSNGEPIWACANVDARAAHEVSELKELYDNTFEEEVYRCSGQTLALSAIPRLLWLAHHRPDIYHRASTVTMISDWMAFMLSGELAVDPSNAGTTGLLDLVTRNWKRSLLQMAGLRSDILSPVKETGTLLGHISQKAAEQCDLQAGTPVIVGGGDVQLGCLGLGVVRPAQTAVLGGTFWQQVVNLPAPVTDPNMNVRINPHVIPGMVQTESISFFTGLTMRWFRDAFCAEEKLIAERLGIDAYSLLEDMASRVPPGAYGVMPIFSDVMRFKRWYHAAPSFINLSIDPEKCNKATLFRALEENAAIVSACNLQQIAAFSGVQADSLVFAGGGSKGKLWSQILADVTGLTVHVPVVKEATALGCAIAAGVGVGVWPSLAETGEKLVRWDREHKPNPENFAVYQQAREKWQAVYQDQRALVDGGLTTSLWKAPGL	not soluble
MSVASLFEKFFLSASFIDKAPRTQKDYLGYKKDLLIAFGKMDINKVEPKHVRMFMDKKAVKSGISQANRHKSALQSIFSWAYERGKIKVNPCVGVKKFTEKLEHHHHHH	not soluble
MSDKNQIAARASLIEQLMSKRNFEDLGNHLTELETIYVTKEHLQETDVVRAVYRVLKNCPSVALKKKAKCLLSKWKAVYKQTHSKARNSPKLFPVRGNKEENSGPSHDPSQNETLGICSSNSLSSQDVAKLSEMIVPENRAIQLKPKEEHFGDGDPESTGKRSSELLDPTTPMRTKCIELLYAALTSSSTDQPKADLWQNFAREIEEHVFTLYSKNIKKYKTCIRSKVANLKNPRNSHLQQNLLSGTTSPREFAEMTVMEMANKELKQLRASYTESCIQEHYLPQVIDGTQTNKIKCRRCEKYNCKVTVIDRGTLFLPSWVRNSNPDEQMMTYVICNECGEQWYHSKWVCW	soluble
MEVKAFLERETLDRTLGVRYLKAEKDEVVAELVVTPKVHQPFGFLHGGATVALAESVASVGGFLNCPPGHAAFGLEINCNHLRKKREGTIRAVGRPLHVGRTTQVWEVKVYDEEGRLVAASRCTLAVVPLEPAKEPA	soluble
MSLFEQLDELAAQGKPAALLTIVRKDGSAPRDVGDKMIVTADEEYGTIGGGTVEHLAVQDARSVLSGADDPGIRTYELERGGNTGMVCGGEMDVFIDHVRGQAQLYIAGGGHISVELAPLAERLGYAVTVVDDREAYADPTQFPDETDVIHGEYGEALGDLPMGTETAVAVATRSGTFDQAAVAAALDGEAGYVGLVASETKANHVLDSLAESGYARRDLSRVQTPVGLDLGGSGPAAVALSVLAEVTMDRHDATGARATRLNLDDLVVVRGGGDLGSGVVYRLQQAGFPVIVTEVDQPTVVRRAVAFGAALYEDEVEVEGVTGRAAADIDEALELLADDVVPVLVDPEATVADDLDAAVLVDAIMAKGAFDTGTRREDADVVVGMGPGFEAGEDVDAVVETDRGHELGRVFYDGTASEYDGEPGERRGYTHERVLRAPTDGEWTPTVAIGDSVTAGDVVGTVGDRPVETEIDGLVRGLVHGGLSVSEGTKLGDVDPRGESVDPTKISDKALCLGGGVLEAVLRLRLEHHHHHH	not soluble
MIVFKAENLSVGYNGVKAVSNINFSAKQGEIICLLGPNGAGKTTIIRTLSGLLPPIEGEIHINGKSLSTINKKLLAQTLSVVLTEKPSFDVMTAFDVVSLGRFPHTGFFGTITKEHEIKVVEALKTVGALNLIDKYFHILSDGERQKVMLARALVQEPQIIILDEPTTHLDINHKIELLNTLKNLSRTAKLTVILSLHEIDLALKYCDKVMLVENKKVLSFGSPETTVNGETINKLYGIKNASFNPITSSIELKNSEKSNIYVIGGCGFGTPIYRLLSKYNLGFSTGILHENDIDYETAKTMSLRLQSEKPFQKISKISFEKALAAVASSDIIIDSGFPIGETNEKNLNLLNYAVEKNKRVITFRKYFNSTMSYCSNKDALIDFILRLEHHHHHH	not soluble
MEMSSNNKPVAGAEIKVAGASPTDSDQEGRFILNFTASLPGDPLMINDIYKKGFKIVNYEKVANWNISSASELKIVLGRTEVINALRKKYYDIGESNSEKEYRKTLAELEELKKQNALSAVEYDQKVDSMSKSMMEWQKRLEIYALKFACINRDELDAMEKQAMELLDHGDVHGAIRLYEEMKLDSTMTLKIAVRQEAKEDMKLLLPSLVNNFQLLKQADDKVACDSVAHLIYEMAADIKLKLMSVEWFFQRNDPSEVLDQYSLIVKDTQSMQEIELVENSLQQSLKEVKLKGELKKKAQLVFERIEDRKKWISIKEKI	not soluble
MGSDKIHHHHHHMHASVKFRIAEIINSTMPSAEWRLLKQIGVNEVVGTLPRDPSDWRGDQPDLPWDYAPLSSLKRRLSEYGLTLSAIEDNPPMEKIKYGVKGKEDELENVLRLIENMGRLKIGVWCYNWMAGQGWMRSRISIPDRGGAEVTGFSLSDIEEYPPPKMGKIDAETLWKNLAWFLDNVIPVAEDSGVKIAMHPDDPPLEEIRGVSRIMNNVKAFDKLIEMKRSEYNTITLCQGNFTLMTEDLPSAIRHFVRKKAVSFVHFRDVKGKKDNFIESFIDDGKTDTASCMSAYIEEGFDGIMRTDHTPTLYGDTYKVPGYSILGRLHAIGYIQGLIDGVSMV	not soluble
